The text below walks through data of US20240392024A1 (SHANGHAI CELGEN BIO PHARMACEUTICAL, published 2024).

Values joined by “and” are separate entries in the source; they are usually repeats but may differ in a detail not shown here. Identical values can stand only once.

Assay [1] deals with T1, TNFR2-His (Sino Biological, 10417-H08H, NP_001057.1 Met1-Asp257, with multi-histidine tag expressed on … (human, UniProt P20333 23-257)).
T1 construct: range 1-257; Bought protein; also called recombinant human TNFR2 protein; TNFR2-His antigen; not shown: C-terminal multi-histidine tag
T1 sequence (looked up): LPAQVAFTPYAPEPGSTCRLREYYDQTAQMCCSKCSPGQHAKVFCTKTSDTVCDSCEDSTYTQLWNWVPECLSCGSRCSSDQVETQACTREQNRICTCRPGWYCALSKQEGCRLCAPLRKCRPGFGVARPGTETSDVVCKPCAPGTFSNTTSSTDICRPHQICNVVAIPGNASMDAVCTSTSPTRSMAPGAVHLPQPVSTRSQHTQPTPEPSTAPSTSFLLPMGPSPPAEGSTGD
Nature of the assay: ELISA, plate coated with TNFR2-His (second test). The method, boiled down: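 ELISA on plates coated with recombinant human TNFR2 carrying a C-terminal His tag, then blocked. Serially diluted antibodies were incubated, followed by an enzyme-labelled anti-IgG secondary antibody. Plates were developed with TMB and read on a microplate reader. EC50 is reported from the dilution series.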

Assay [2] has as its target T2, human TNFR2 on the cell membrane (human, UniProt P20333 23-461).
T2 construct: whole, on cells; One molecule for all cell formats; also called TNFR2-CHO cells; CHO-TNFR2
T2 sequence (looked up): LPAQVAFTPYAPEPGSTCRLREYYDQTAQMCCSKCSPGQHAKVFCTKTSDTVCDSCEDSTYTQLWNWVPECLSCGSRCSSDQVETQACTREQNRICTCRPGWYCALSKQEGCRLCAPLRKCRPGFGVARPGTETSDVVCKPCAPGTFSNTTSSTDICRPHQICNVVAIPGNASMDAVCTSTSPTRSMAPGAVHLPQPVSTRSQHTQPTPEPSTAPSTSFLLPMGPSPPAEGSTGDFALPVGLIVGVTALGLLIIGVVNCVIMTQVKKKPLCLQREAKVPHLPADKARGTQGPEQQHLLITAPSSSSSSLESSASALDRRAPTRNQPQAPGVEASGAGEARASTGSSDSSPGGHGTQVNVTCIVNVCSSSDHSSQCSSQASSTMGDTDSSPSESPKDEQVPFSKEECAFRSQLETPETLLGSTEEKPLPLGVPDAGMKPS
Nature of the assay: flow cytometry on CHO-TNFR2 cells. In short, it runs like this:
(§1)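 Flow cytometry on CHO cells stably overexpressing human TNFR2, made by pcDNA3.4-TNFR2 transfection, drug selection and single-clone sorting. Cells in 96-deep-well plates were incubated with serially diluted antibodies, washed and stained with a fluorescent anti-IgG secondary antibody. Samples were read on a Beckman CytoFLEX. EC50 is reported from the dilution series.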

In assay [3] the target is T1, TNFR2-His (Sino Biological, 10417-H08H, …). Nature of the assay: BLI, antibody captured on AHC probe, TNFR2 in solution. The method, boiled down: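 Kon, koff and Kd were derived from kinetic association measurements by bio-layer interferometry on an Octet in Basic Kinetics mode. Antibody-capture sensors held antibodies at 50 nM in Q buffer (10 mM PBS pH 7.4, 0.02% Tween 20, 0.2% BSA). These sensors were then placed in recombinant human TNFR2, diluted 2-fold in Q buffer from a top concentration of 100 nM.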

Assay [4] has as its target T2, human TNFR2 on the cell membrane. Nature of the assay: flow cytometry, CHO-TNFR2 cells. In short, it runs like this: as §1
Assay [5] has as its target T1, TNFR2-His (Sino Biological, 10417-H08H, …). Nature of the assay: ELISA, plate coated with TNFR2-His. As for the experimental part: To determine whether the human-mouse chimeric TNFR2 monoclonal antibody of the present invention can bind to recombinant human TNFR2 protein, in vitro ELISA test was conducted. Similar to the method described above, The plate was coated with TNFR2-His (Sino Biological, 10417-H08H, Assessment #NP_001057.1.Met1-Asp257, with multi-histidine tag expressed on C-terminus) antigens, and blocked with BSA, then added with gradient diluted human-mouse chimeric TNFR2 monoclonal antibodies for incubation. Then, secondary antibody Ap-anit-human IgG Fc (JacksonImmuno Research, 109-055-098) was added for incubation After TMB development, ELISA reading was performed.

Assay [6] has as its target T2, human TNFR2 on the cell membrane. Nature of the assay: flow cytometry on Jurkat-TNFR2 cells. As for the experimental part:
Purified human-mouse monoclonal antibodies against TNFR2 were co-cultured with TNFR2 positive Jurkat cells (Jurkat cells were transfected with pcDNA3.4-TNFR2 plasmid using conventional methods, and after screening, stable and highly expressed TNFR2 Jurkat cell lines were obtained) and stained. The antibody binding intensity was analyzed by flow cytometry. The specific steps are as follows: Jurkat-TNFR2 was counted, centrifuged, resuspended, then added to a 96-deep well plate, and the supernatant was discarded. The anti-TNFR2 antibody was gradient diluted, and added to the 96-deep well plate, After incubation and wash, the secondary antibody FITC-anti-human IgG (Abcam: 6854) was added, and the samples were detected using Beckman CytoFLEX.

Assay [7] has the same target. Kind of assay: competition flow cytometry, TNFR2 positive cells, TNFα fusion protein at fixed concentration. As for the experimental part: Purified anti-human TNFR2 human-mouse monoclonal antibodies were co-cultured with TNFR2 positive cells and stained. The antibody binding intensity was analyzed by flow cytometry. The specific steps are as follows: cells were counted, centrifugated, resuspended, then added to a 96-deep well plate, and the supernatant was discarded. Gradient diluted anti-TNFR2 antibodies and TNFα fusion protein of fixed concentration were added. After incubation and wash, the secondary antibody PE-streptavidin (Biogen, 405203) was added for incubation, and the samples were detected using Beckman CytoFLEX.

For assay [8], the target named is T1, TNFR2-His (Sino Biological, 10417-H08H, …). Kind of assay: competition ELISA on coated TNFR2-His against biotin-labeled TNFα fusion protein at fixed concentration. As for the experimental part:
The ELISA plate was coated with TNFR2-His antigen (Sino Biological, 10417-H08H, Assessment #NP_001057.1. Met1-Asp257, with multi-histidine tags expressed on C-terminus) and blocked, added with the gradient diluted TNFR2 monoclonal antibodies and biotin-labeled TNFα fusion protein of fixed concentration for incubation, then added with the secondary antibody Ap-Strepavidin (Herobio, 510401) for incubation. After development, the detection was performed using microplate reader.

B1: human-mouse chimeric TNFR2 monoclonal antibody 12E12-hFc (antibody, V domains shown)
VH: EVQLQQSGAELVKPGASVKLSCTVSGFNIKDFYIHWVKQRPEQGLEWIGRVDPEDGNTEYAPNFQDRATMTTDTSSNTAYLQLSSLTSVDTAVYYCSTWDGFSYFDYWGLGTTLTVSS
VL: QAVVTQESALTTSPGETVTLTCRSSTGPVTTNNYANWVQEKPDHLFTGLIGGTNDRAPGVPARFSGSLIGDKTALTITGTQTEDEAVYFCALWYRNHWVFGGGTKLTVL
notes: Mouse V regions of clone 12E12 with human constant regions; also called human-mouse chimeric 12E12 antibody
On to B1, for which the EC50 in assay [1] is 0.0346 µg/mL and 0.232 nM; in assay [2], 0.0291 µg/mL; in assay [4], 0.195 nM; in assay [5], 0.0396 µg/mL; in assay [6], 0.0123 µg/mL. The molecule also gave a Kd in assay [3] of 3.27 nM. The molecule also returned a koff in assay [3] of 0.00216 s⁻¹. Moreover, the kon in assay [3] is 659000 M⁻¹ s⁻¹.

B2: human-mouse chimeric TNFR2 monoclonal antibody 27F6-hFc (antibody, V domains shown)
VH: EVQLQQSGTVLARPGASVKMSCKTSGYTFTSYWMHWVKQRPGQGLEWIGTIYPGNSDTSYNQKFKGKAKLTAVTSASTAYMELNSLTNEDSAVFYCTRENLLLRSYFFDYWGQGTTLTVSS
VL: DIVMTQSPASLAVSLGQRATISCKASQSVDYDGDSYLNWYQQKPGQPPKLLIYAASNLPSGIPARFSGSGSGTDFTLNIHPVEEEDAATYYCQQSNEDPRTFGGGTKLEIK
notes: Mouse V regions of clone 27F6 with human constant regions
On to B2, for which the IC50 in assay [7] is 0.179 µg/mL; in assay [8], 0.674 µg/mL and 4.52 nM. Further, the EC50 in assay [5] came out at 0.0415 µg/mL; in assay [6], 0.0357 µg/mL.
